One test has as its target T1, ALK4 (Homo sapiens, UniProt P36896).
T1 construct: endogenous in cells; host or cells: primary human naive CD4+ T cells from PBMCs
T1 sequence (P36896 24-505): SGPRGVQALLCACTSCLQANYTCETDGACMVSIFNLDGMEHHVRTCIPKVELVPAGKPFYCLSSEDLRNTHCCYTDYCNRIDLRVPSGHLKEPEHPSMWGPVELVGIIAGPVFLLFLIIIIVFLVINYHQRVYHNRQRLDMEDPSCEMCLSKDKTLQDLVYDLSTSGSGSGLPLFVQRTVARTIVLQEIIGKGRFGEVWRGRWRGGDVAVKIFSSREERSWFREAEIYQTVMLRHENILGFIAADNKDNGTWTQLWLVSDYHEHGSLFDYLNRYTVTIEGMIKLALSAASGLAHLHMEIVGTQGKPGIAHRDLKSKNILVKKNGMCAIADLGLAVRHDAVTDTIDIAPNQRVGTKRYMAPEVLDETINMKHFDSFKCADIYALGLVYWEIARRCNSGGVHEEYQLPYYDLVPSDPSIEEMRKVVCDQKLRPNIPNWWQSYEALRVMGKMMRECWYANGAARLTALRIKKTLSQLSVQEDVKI
The experiment in a line: SMAD2/3 inhibition experiments (ALK4 inhibitors) in Tfh differentiation. Format: cell-based. The settings on record: activin A+IL-12, 5 days, vs vehicle (DMSO).

The subject of test [1] is SMAD2/3. The experiment in a line: Analysis of phosphorylated SMAD2/3 in tonsil CD4 T cells. The test is classed as cell-based, human. The settings on record: tonsil naïve CD4 T cells, activin A+Galunisertib. An excerpt:
(§1) Fresh PBMCs and tonsil mononuclear cells were serum-starved over night in AIM-V medium. […] Following stimulation, the cells were fixed in BD Phosflow™ Fix Buffer I (BD Biosciences), then permeabilized using BD Phosflow™ Perm Buffer III (BD Biosciences) following manufacture's instruction.

The test system of test [2] is SMAD2/3. The experiment in a line: Analysis of phosphorylated SMAD2/3 in blood naïve CD4 T cells. The settings on record: activin A + SB 431542 (10 μM). Format: cell-based, human.
Excerpt: as §1

The subject of test [3] is human naïve CD4 T cells. The experiment in a line: Intracellular cytokine staining after PMA/Ionomycin restimulation. The test is classed as cell-based. As to conditions: cells cultured with IL-12, PMA/Ionomycin re-stimulation. As for the experimental part:
(§2) For surface staining, primary-staining panels used for phenotypic analysis or for cell sorting known in the art were used. For the intranuclear staining: cells were treated with the FoxP3 Fixation/Permeabilization kit (eBioscience) and stained in Permeabilization buffer (eBioscience). For cytokine staining: day 3 or day 5 in vitro differentiated cells (specified in the main text or in figure legends) cells were stimulated for 5 hours at 37° C. with Phorbol 12-myristate 13-acetate (PMA, 25 ng/ml) and Ionomycin (1 μg/ml) in the presence of Brefeldin A (5 μg/ml). Cells were fixed with PBS 2% FBS, 1% PFA and permeabilized with PBS 2% FBS, 0.5% Saponin (from quillaja bark, Sigma-Aldrich). Samples were analyzed on a LSR Fortessa Cell Analyzer (BD, Bioscience). Flow cytometry data were analyzed with FlowJo (Tree Star). For cell sorting, cells were sorted using sorted using a FACS Aria (BD, Bioscience).

Test [4] has as its system autologous memory B cells. The test can be described thus: T-B co-culture, B cell help. The test is classed as cell-based, human. As to conditions: T-B co-cultures.
The subject of test [5] is human naïve CD4 T cells. The experiment in a line: In vitro Tfh differentiation, PD-1 and CXCR5 expression by FACS. Format: cell-based. The settings on record: for synergy with activin A on CXCR5 and PD-1 expression: IL-12 family cytokine added to activin A, serum-free conditions. As for the experimental part: as §2
Unless differently specified, naïve CD4^+ T cells were enriched from PBMCs by magnetic bead negative selection with the Naïve CD4^+ T Cell Isolation Kit (Stem Cell Technologies). Purity (CD4^+CD45RA^+) was 90% or higher. Cells (7.5×10^4 cells/well) were activated by Dynabeads Human T-Activator CD3/CD28 (2 μl/well, Life Technologies) and cultured with recombinant human/mouse/rat activin A (50 ng/ml or 100 ng/ml), recombinant human IL-12 (5 ng/ml), recombinant human TGFβ (1 ng/ml), recombinant human IL-23 (10 ng/ml) or recombinant human IL-35 (10 ng/ml) in the presence of and recombinant human IL-7 (4 ng/ml) in AIM-V medium (Life Technologies). All cytokines were from R&D System and Peprotech. The 14 kDa mature human beta A chain of human activin A shares 100% amino acid sequence identity with bovine, feline, mouse, porcine, and rat beta A. Phenotype was quantified after 3 or 5 days, as specified in the main text of Figure legends. Similar results were obtained when using Treg-depleted FACS sorted naïve CD4 T cells, in which cells were sorted from total PBMCs by flow cytometry as CD19^−CD8^−CD14^−CD16^− CD4^+CD45RO^−CD25^− cells. For experiments quantifying supernatant CXCL13 concentration, cells were activated by plate-bound anti-human CD3 (5 μg/ml, BD) and ICOS-L (5 μg/ml, recombinant human B7-H2, R&D). CXCL13 concentrations were determined via human CXCL13 DuoSet ELISA (R&D) on supernatants harvested after 5 days of in vitro culture. For blocking experiments, cells were cultured with anti-activin A blocking mAb (5 μg/ml, clone 69403, R&D), anti-TGFβ mAb (100 μg/ml, clone 1D11.16.8, BioXcell), or equivalent concentration of mouse IgG1 isotype mAb (BioXcell). For blockade of IL-2, cells were cultured with anti-IL-2 blocking mAb (10 μg/ml, clone 5334, R&D) or mouse IgG1 isotype mAb (BioXcell).
(Flow cytometry measures light scatter and fluorescence of single cells or particles in a stream.)

Test [6] relates to human naïve CD4 T cells. The test can be described thus: Screening of secretomics recombinant proteins for Tfh marker induction. Format: cell-based. The settings on record: secretomics protein screen, anti-CD3/CD28 beads, 5 days, automated FACS. How it is done:
FIG. 1A-D: Inhibin beta A (INHBA) emerged from the screen as potent regulator of human Tfh differentiation. (A) Schematic of primary screen. Purified human naïve CD4 T cells from a leukapheresis donor were stimulated by anti-CD3/CD28 beads on 384 well plates on day 0. The GNF secretomics recombinant proteins were added at the beginning of the stimulation. Each secretomics protein was tested in duplicate. After 5 days of in vitro culture, cells were evaluated by automated FACS analysis for the expression of Tfh signature markers, including CXCR5 and PD-1. (B) Primary screen results. Relative enrichment of PD-1^+CXCR5^+ cell induction is reported as Z score for each recombinant protein. INHBA gene product is shown in red. (C) CXCR5 and PD-1 expression from repeat experiment in which INHBA gene product was tested again for its capacity to induce Tfh-like differentiation. (D) Confocal microscopy of INHBA expression in human tonsils. Tonsil sections were stained with anti-INHBA (red) anti-BCL6 (blue) and anti-CD3 (green) Abs. An overlay from one donor representative of six is shown on the left panel. […]
Naïve CD4^+ T cells were isolated from leukapheresis-derived mononuclear cells via CliniMACS negative selection (Miltenyi Biotec). […] Induction of CXCR5 and PD-1 was assessed after 5 days of in vitro culture using automated FACS acquisition via HTS on LSR Fortessa (BD Biosciences). For each 384 well plate, mean and standard deviation of PD-1^+CXCR5^+ cell frequency induced by each individual recombinant proteins was determined and used to calculate the Z score. Z scores of replicate plates were analyzed independently.
To discover novel regulators of human Tfh cell differentiation, we performed an unbiased high throughput screen of a human extracellular proteome library consisting of over 2000 human proteins predicted or known to be cytokines, chemokines, morphogens, costimulatory receptors, or single pass transmembrane molecules^19. […] Following 5 days, expression of the Tfh signature markers CXCR5 and PD-1 were measured on the cells by flow cytometry, in an automated fashion. […]

For the molecule `Cc1cccc(-c2nn3c(c2-c2ccnc4ccc(C(N)=O)cc24)CCC3)n1` [Galunisertib, reference compound], the “suppression of PD-1+CXCR5+ cell generation in response to activin A” value at ALK4 is recorded as “potent suppression”. The “inhibition of activin A-induced SMAD2/3 phosphorylation” value in the test on SMAD2/3 [1] is reported as “abolished”.
For `NC(=O)c1ccc(-c2nc(-c3ccc4c(c3)OCO4)c(-c3ccccn3)[nH]2)cc1` [SB 431542, reference compound], the “reduction of activin A-mediated SMAD2/3 phosphorylation” value in the test with SMAD2/3 [2] is “strong reduction”.

B1: IL-12: recombinant human cytokine (protein, UniProt P29459 23-219; P29460 23-328, looked up)
Interleukin-12 subunit alpha: RNLPVATPDPGMFPCLHHSQNLLRAVSNMLQKARQTLEFYPCTSEEIDHEDITKDKTSTVEACLPLELTKNESCLNSRETSFITNGSCLASRKTSFMMALCLSSIYEDLKMYQVEFKTMNAKLLMDPKRQIFLDQNMLAVIDELMQALNFNSETVPQKSSLEEPDFYKTKIKLCILLHAFRIRAVTIDRVMSYLNAS
Interleukin-12 subunit beta: IWELKKDVYVVELDWYPDAPGEMVVLTCDTPEEDGITWTLDQSSEVLGSGKTLTIQVKEFGDAGQYTCHKGGEVLSHSLLLLHKKEDGIWSTDILKDQKEPKNKTFLRCEAKNYSGRFTCWWLTTISTDLTFSVKSSRGSSDPQGVTCGAATLSAERVRGDNKEYEYSVECQEDSACPAAEESLPIEVMVDAVHKLKYENYTSSFFIRDIIKPDPPKNLQLKPLKNSRQVEVSWEYPDTWSTPHSYFSLTFCVQVQGKSKREKKDRVFTDKTSATVICRKNASISVRAQDRYYSSSWSEWASVPCS
As to B1, the IL-21 production result in the test with human naïve CD4 T cells [3] was “capable of producing IL-21”. Besides, the “contribution to B cell helper activity of in vitro differentiated Tfh cells” value in test [4] is “driven entirely by IL-12”. Also, the “synergy with activin A on CXCR5 and PD-1 expression” value in the test with human naïve CD4 T cells [5] is “enhanced”.

B2: IL-23: recombinant human cytokine of the IL-12 cytokine family (protein, UniProt Q9NPF7 20-189; P29460 23-328, looked up)
Interleukin-23 subunit alpha: RAVPGGSSPAWTQCQQLSQKLCTLAWSAHPLVGHMDLREEGDEETTNDVPHIQCGDGCDPQGLRDNSQFCLQRIHQGLIFYEKLLGSDIFTGEPSLLPDSPVGQLHASLLGLSQLLQPEGHHWETQQIPSLSPSQPWQRLLLRFKILRSLQAFVAVAARVFAHGAATLSP
Interleukin-12 subunit beta: B1 Interleukin-12 subunit beta
Take B2: in the test on human naïve CD4 T cells [5] (FIG. 15, interleukin combined with TGFβ or activin A), the “synergy with TGFβ or activin A, induction of CXCR5+ or CXCR5+PD1+ cells” value was “synergizes with TGFβ or activin A but less potently than IL-12”. In addition, the “synergy with activin A on CXCR5 and PD-1 expression” value in the test on human naïve CD4 T cells [5] is “modest but detectable synergistic activity with activin A”.

B3: product of the Inhibin beta A gene (INHBA): secreted recombinant protein from the secretomics collection; forms the cytokine activin A as a homodimer (protein, UniProt P08476 311-426, looked up)
Inhibin beta A chain: GLECDGKVNICCKKQFFVSFKDIGWNDWIIAPSGYHANYCEGECPSHIAGTSGSSLSFHSTVINHYRMRGHSPFANLKSCCVPTKLRPMSMLYYDDGQNIIKKDIQNMIVEECGCS
modifications: Inhibin beta A chain
As for B3, the “induction of CXCR5 and PD-1 expression (PD-1+CXCR5+ cells)” value with human naïve CD4 T cells [6] was “most potent inducer of CXCR5 and PD-1”.

These data come from patent US20180111991A1, “MODULATORS OF ACTIVIN AND METHODS FOR MODULATING IMMUNE RESPONSES AND T FOLLICULAR HELPER CELLS” (LA JOLLA INSTITUTE FOR ALLERGY AND IMMUNOLOGY, priority 2014, published 2018).
